{"source": "paper PMC11077057", "about": "“Identifying human pre-mRNA cleavage and polyadenylation factors by genome-wide CRISPR screens using a dual fluorescence readthrough reporter”", "binders": {"B1": {"name": "GEMIN7 3' UTR probe (ssRNA)", "RNA": "AUUUGAUUUCAUUUUGGGGCGGGCGGUGGCUCGUGCUGGGUCACGUGGUCGUGCCAAGCGCUCCUCCUGUUGCCCCACCUGUGGUUGCUGUGGACUGCAC"}, "B2": {"name": "GEMIN7 exon 2 probe (ssRNA)", "RNA": "GCGGCUUCUCUGUUGACAACUCAGCUGGUUCCACACCCUGGCAAUUGUGAAGAGUUGGCCAAAUGUUUGUCCACUGAGCUGAUCUCCUCUCUGGAGCACC"}}, "experiment_in_all_cases": "EMSA; 0-1 ug protein; heparin 200 ug/ml added after binding; EMSA: 40 mM Tris pH 8.0, 30 mM KCl, 1 mM MgCl2, 0.01% NP-40, 1 mM DTT, 100 ng/ml yeast tRNA, 20 ul, 30 C 30-60 min, then on ice with heparin 200 ug/ml; 4-6% native PAGE 0.5x TBE, cold room", "key": {"RPRD1B full length": {"target": "T1, RPRD1B full length (human, UniProt Q9NQG5 2-326)", "T1 sequence": "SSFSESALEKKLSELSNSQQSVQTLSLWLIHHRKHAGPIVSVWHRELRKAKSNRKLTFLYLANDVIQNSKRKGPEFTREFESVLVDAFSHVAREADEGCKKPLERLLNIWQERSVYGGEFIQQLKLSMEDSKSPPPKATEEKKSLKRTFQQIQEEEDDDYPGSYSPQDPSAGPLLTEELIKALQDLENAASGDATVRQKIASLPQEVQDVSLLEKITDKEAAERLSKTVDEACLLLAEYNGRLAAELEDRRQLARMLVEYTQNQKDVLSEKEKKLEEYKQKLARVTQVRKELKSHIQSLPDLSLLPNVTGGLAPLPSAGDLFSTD", "conditions": "protein: recombinant; (pET28GST-LIC; 6xHis stated); chain copies: 2"}, "RPRD1B CID": {"target": "T2, RPRD1B CID (human, UniProt Q9NQG5 2-135)", "T2 sequence": "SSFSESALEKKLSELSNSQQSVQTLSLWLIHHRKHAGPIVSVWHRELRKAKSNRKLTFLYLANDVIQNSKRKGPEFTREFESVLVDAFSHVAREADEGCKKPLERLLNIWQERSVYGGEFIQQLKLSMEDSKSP", "conditions": "protein: recombinant; (pET28GST-LIC; 6xHis stated)"}, "[1]": {"target": "T3, RPRD1B coiled-coil domain (human, UniProt Q9NQG5 171-304)", "T3 sequence": "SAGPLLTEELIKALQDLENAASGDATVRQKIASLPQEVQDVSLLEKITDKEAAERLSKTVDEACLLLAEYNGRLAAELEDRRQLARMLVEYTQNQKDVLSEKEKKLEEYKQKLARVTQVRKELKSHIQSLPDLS", "conditions": "protein: recombinant; (pET28GST-LIC; 6xHis stated); chain copies: 2"}}, "data": [{"binder": "B1", "values": [{"measurement": "binding result", "setting": "RPRD1B full length", "result": "binds"}, {"measurement": "binding result", "setting": "RPRD1B CID", "result": "binds"}, {"measurement": "binding result", "setting": "[1]", "result": "no binding"}]}, {"binder": "B2", "values": [{"measurement": "binding result", "setting": "RPRD1B full length", "result": "no binding"}]}]}
